Source: publication PMC9482650, “Quantitative fragmentomics allow affinity mapping of interactomes” (Nature Communications, 2022)

Experiments:
Experiment in all cases: holdup assay
Design in all cases: key: below the threshold = too weak to quantify, mostly under pKd 3.1 to 4
NHERF2_1, Q15599 = target: NHERF2_1, Q15599
DLG5_2, Q8TDM6 = target: DLG5_2, Q8TDM6
PDLIM4, P50479 = target: PDLIM4, P50479
MAGI1_4, Q96QZ7 = conditions: plain residues with an end cap or a label only (N-terminal biotin on a linker: (peg)3)
GRIP1_1, Q9Y3R0 = target: T1, GRIP1_1, Q9Y3R0
T1 sequence (Q9Y3R0 48-146, limits assumed, looked up): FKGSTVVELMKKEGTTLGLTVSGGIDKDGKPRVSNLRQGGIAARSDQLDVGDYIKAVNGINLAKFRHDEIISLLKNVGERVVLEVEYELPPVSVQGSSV

MAGI1_6, Q96QZ7 = target: MAGI1_6, Q96QZ7
PDZD2_3, O15018 = target: T2, PDZD2_3, O15018
T2 sequence (O15018 581-682, limits assumed, looked up): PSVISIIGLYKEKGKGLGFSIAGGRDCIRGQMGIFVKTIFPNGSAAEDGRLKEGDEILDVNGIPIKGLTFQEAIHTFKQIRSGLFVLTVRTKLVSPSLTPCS

PREX2_2, Q70Z35 = target: T3, PREX2_2, Q70Z35
T3 sequence (Q70Z35 672-764, limits assumed, looked up): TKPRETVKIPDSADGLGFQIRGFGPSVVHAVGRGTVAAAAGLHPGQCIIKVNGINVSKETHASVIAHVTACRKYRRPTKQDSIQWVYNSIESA

MAGI1_5, Q96QZ7 = target: MAGI1_5, Q96QZ7
LNX2_4, Q8N448 = target: T4, LNX2_4, Q8N448
T4 sequence (Q8N448 595-690, limits assumed, looked up): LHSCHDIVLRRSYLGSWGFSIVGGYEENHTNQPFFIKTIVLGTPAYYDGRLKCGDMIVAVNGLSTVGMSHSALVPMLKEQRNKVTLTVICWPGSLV

MAGI3_6, Q5TCQ9 = target: MAGI3_6, Q5TCQ9
MPDZ_11, O75970 = target: T5, MPDZ_11, O75970
T5 sequence (O75970 1720-1817, limits assumed, looked up): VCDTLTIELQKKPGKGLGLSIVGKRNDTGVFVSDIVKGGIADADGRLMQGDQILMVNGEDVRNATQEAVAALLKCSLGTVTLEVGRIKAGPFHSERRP

SIPA1L3, O60292 = target: T6, SIPA1L3, O60292
T6 sequence (O60292 961-1052, limits assumed, looked up): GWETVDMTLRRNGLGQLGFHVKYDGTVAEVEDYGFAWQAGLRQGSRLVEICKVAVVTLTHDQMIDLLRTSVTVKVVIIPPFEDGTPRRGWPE

MAST3, O60307 = target: MAST3, O60307
RGS3, P49796-9 = target: RGS3, P49796-9
PARD6G, Q9BYG4 = target: T7, PARD6G, Q9BYG4; conditions: plain residues with an end cap or a label only (N-terminal biotin on a linker: (peg)3)
T7 sequence (Q9BYG4 153-261, limits assumed, looked up): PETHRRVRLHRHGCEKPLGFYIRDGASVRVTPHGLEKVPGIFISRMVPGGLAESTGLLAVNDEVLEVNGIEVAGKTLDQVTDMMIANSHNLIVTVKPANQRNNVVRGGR

LMO7, Q8WWI1 = conditions: plain residues with an end cap or a label only (N-terminal biotin on a linker: (peg)3)
PARD3B_2, Q8TEW8 = target: PARD3B_2, Q8TEW8
PARD3B_3, Q8TEW8 = target: PARD3B_3, Q8TEW8
PDZRN3_2, Q9UPQ7 = target: T8, PDZRN3_2, Q9UPQ7; conditions: plain residues with an end cap or a label only (N-terminal biotin on a linker: (peg)3)
T8 sequence (Q9UPQ7 414-513, limits assumed, looked up): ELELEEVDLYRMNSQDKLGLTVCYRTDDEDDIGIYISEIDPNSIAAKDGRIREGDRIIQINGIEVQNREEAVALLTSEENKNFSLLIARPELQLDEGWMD

IL16_2, Q14005 = target: IL16_2, Q14005
INTU, Q9ULD6 = target: T9, INTU, Q9ULD6; conditions: plain residues with an end cap or a label only (N-terminal biotin on a linker: (peg)3)
T9 sequence (Q9ULD6 180-273, limits assumed, looked up): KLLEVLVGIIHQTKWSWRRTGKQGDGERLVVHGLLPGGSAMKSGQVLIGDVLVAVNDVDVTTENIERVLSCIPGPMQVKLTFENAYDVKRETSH

DVL1, O14640 = target: T10, DVL1, O14640; conditions: plain residues with an end cap or a label only (N-terminal biotin on a linker: (peg)3)
T10 sequence (O14640 246-333, limits assumed, looked up): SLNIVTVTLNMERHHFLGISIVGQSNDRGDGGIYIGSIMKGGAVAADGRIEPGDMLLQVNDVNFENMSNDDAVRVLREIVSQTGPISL

LIMK1, P53667 = target: LIMK1, P53667
PTPN13_2, Q12923 = target: PTPN13_2, Q12923
GRIP2_2, Q9C0E4 = conditions: plain residues with an end cap or a label only (N-terminal biotin on a linker: (peg)3)
MPDZ_6, O75970 = target: T11, MPDZ_6, O75970
T11 sequence (O75970 1003-1099, limits assumed, looked up): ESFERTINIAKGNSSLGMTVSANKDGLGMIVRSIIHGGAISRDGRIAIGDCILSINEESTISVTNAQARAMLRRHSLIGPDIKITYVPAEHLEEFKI

[1] = plain residues with an end cap or a label only (N-terminal biotin on a linker: (peg)3)
[2] = modified: phospho on T at position -2 from the C-terminal residue

MAGI3_6, Q5TCQ9, sequence (Q5TCQ9 1014-1103): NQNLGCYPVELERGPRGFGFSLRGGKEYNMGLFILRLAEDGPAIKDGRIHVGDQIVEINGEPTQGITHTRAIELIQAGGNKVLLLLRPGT
PDLIM4, P50479, sequence (P50479 1-83): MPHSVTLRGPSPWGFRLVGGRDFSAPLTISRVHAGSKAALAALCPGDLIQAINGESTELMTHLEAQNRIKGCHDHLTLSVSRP
PARD3B_3, Q8TEW8, sequence (Q8TEW8 490-594): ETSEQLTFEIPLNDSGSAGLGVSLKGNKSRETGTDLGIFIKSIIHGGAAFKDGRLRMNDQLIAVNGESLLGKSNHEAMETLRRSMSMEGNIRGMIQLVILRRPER
IL16_2, Q14005, sequence (Q14005 350-450): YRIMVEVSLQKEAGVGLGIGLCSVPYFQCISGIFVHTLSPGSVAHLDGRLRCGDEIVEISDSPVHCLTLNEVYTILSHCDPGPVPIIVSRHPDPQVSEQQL
DLG5_2, Q8TDM6, sequence (Q8TDM6 714-800): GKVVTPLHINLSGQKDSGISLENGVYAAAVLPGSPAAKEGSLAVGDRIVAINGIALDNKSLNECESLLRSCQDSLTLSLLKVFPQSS
MAGI1_5, Q96QZ7, sequence (Q96QZ7 986-1098): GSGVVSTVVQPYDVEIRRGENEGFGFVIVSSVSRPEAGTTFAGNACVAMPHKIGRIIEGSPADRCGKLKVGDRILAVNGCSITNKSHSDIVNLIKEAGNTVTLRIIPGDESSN
LIMK1, P53667, sequence (P53667 155-268): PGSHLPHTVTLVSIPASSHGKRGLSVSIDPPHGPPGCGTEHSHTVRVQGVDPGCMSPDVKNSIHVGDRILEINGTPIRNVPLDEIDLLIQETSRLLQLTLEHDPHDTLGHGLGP
MAGI1_6, Q96QZ7, sequence (Q96QZ7 1146-1238): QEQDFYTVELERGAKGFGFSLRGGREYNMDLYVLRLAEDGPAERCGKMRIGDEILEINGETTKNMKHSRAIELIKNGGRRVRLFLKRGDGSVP
PARD3B_2, Q8TEW8, sequence (Q8TEW8 376-471): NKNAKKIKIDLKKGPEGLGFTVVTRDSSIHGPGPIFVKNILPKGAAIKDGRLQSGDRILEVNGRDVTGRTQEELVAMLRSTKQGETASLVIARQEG
MAST3, O60307, sequence (O60307 945-1048): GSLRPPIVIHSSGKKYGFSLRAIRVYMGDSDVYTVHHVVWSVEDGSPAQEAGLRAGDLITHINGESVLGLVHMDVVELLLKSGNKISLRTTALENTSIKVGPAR
PTPN13_2, Q12923, sequence (Q12923 1363-1462): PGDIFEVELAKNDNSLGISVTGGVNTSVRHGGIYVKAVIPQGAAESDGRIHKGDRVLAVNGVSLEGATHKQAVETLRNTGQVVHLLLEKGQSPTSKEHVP
RGS3, P49796-9, sequence (P49796 other isoform, or with tags, fused parts or gaps): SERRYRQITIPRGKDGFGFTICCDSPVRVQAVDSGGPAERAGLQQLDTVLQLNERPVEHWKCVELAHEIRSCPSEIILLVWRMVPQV
NHERF2_1, Q15599, sequence (Q15599 9-91): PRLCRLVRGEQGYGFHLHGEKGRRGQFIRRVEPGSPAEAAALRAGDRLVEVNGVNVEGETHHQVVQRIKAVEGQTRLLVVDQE
LMO7, Q8WWI1, sequence (Q8WWI1 1037-1138): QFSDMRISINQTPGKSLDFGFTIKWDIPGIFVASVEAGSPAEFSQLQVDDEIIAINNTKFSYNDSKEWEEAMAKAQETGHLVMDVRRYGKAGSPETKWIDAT
MAGI1_4, Q96QZ7, sequence (Q96QZ7 other isoform, or with tags, fused parts or gaps): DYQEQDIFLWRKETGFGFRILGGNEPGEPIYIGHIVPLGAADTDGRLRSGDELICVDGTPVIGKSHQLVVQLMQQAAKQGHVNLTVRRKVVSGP
GRIP2_2, Q9C0E4, sequence (Q9C0E4 137-245): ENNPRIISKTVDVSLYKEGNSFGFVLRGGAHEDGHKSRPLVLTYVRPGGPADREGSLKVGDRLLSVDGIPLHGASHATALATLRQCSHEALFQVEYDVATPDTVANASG

Binder	pKd (NHERF2_1, Q15599; [1])	pKd (DLG5_2, Q8TDM6; [1])	pKd (PDLIM4, P50479; [1])	pKd (GRIP1_1, Q9Y3R0; [1])	pKd (MAGI1_6, Q96QZ7; [1])	pKd (PDZD2_3, O15018; [1])	pKd (PREX2_2, Q70Z35; [1])	pKd (MAGI1_5, Q96QZ7; [1])	pKd (LNX2_4, Q8N448; [1])	pKd (MAGI3_6, Q5TCQ9; [1])	pKd (MPDZ_11, O75970; [1])	pKd (SIPA1L3, O60292; [1])	pKd (MAST3, O60307; [1])	pKd (RGS3, P49796-9; [1])	pKd (PARD6G, Q9BYG4)	pKd (PARD3B_2, Q8TEW8; [1])	pKd (PARD3B_3, Q8TEW8; [1])	pKd (PDZRN3_2, Q9UPQ7)	pKd (IL16_2, Q14005; [1])	pKd (INTU, Q9ULD6)	further results
QQSMSSADSTQA [SARS-Cov2-N, P0DTC9]	below the threshold	below the threshold	below the threshold	below the threshold	below the threshold	below the threshold	below the threshold	below the threshold	below the threshold	below the threshold	below the threshold	below the threshold	below the threshold	below the threshold	below the threshold	below the threshold	below the threshold	below the threshold	below the threshold	below the threshold	pKd (MAGI1_4, Q96QZ7): below the threshold; pKd (LMO7, Q8WWI1): below the threshold; pKd (DVL1, O14640): below the threshold; pKd (LIMK1, P53667; [1]): below the threshold; pKd (PTPN13_2, Q12923; [1]): below the threshold; pKd (GRIP2_2, Q9C0E4): below the threshold; pKd (MPDZ_6, O75970; [1]): below the threshold
RRRRSQSRESQC [HBV-HBc, P03193]	below the threshold	below the threshold	below the threshold	below the threshold	below the threshold	below the threshold	below the threshold	below the threshold	3.9	below the threshold	below the threshold	3.96	below the threshold	below the threshold	below the threshold	3.85	below the threshold	below the threshold	below the threshold	below the threshold	pKd (MAGI1_4, Q96QZ7): below the threshold; pKd (DVL1, O14640): below the threshold; pKd (LIMK1, P53667; [1]): below the threshold; pKd (PTPN13_2, Q12923; [1]): 3.99; pKd (GRIP2_2, Q9C0E4): below the threshold; pKd (MPDZ_6, O75970; [1]): below the threshold
RYEDTTLVEDTVL [WNV-NS5, Q9Q6P4]	4.19	below the threshold	below the threshold	below the threshold	below the threshold	below the threshold	below the threshold	3.84	below the threshold	below the threshold	below the threshold	below the threshold	below the threshold	below the threshold	below the threshold	below the threshold	4.05	below the threshold	below the threshold	below the threshold	pKd (LMO7, Q8WWI1): below the threshold; pKd (DVL1, O14640): below the threshold; pKd (LIMK1, P53667; [1]): below the threshold; pKd (PTPN13_2, Q12923; [1]): below the threshold; pKd (MPDZ_6, O75970; [1]): 3.94
SSRTRRETQL [HPV16-E6_-2P, P03126]	–	–	–	–	–	–	–	–	–	–	–	–	–	–	–	–	–	–	–	–	pKd (NHERF2_1, Q15599; [2]): below the threshold; pKd (DLG5_2, Q8TDM6; [2]): below the threshold; pKd (PDLIM4, P50479; [2]): below the threshold; pKd (GRIP1_1, Q9Y3R0; [2]): 4.61; pKd (MAGI1_6, Q96QZ7; [2]): below the threshold; pKd (PDZD2_3, O15018; [2]): below the threshold; pKd (PREX2_2, Q70Z35; [2]): below the threshold; pKd (MAGI1_5, Q96QZ7; [2]): below the threshold; pKd (LNX2_4, Q8N448; [2]): below the threshold; pKd (MAGI3_6, Q5TCQ9; [2]): below the threshold; pKd (MPDZ_11, O75970; [2]): below the threshold; pKd (SIPA1L3, O60292; [2]): below the threshold; pKd (MAST3, O60307; [2]): below the threshold; pKd (RGS3, P49796-9; [2]): below the threshold; pKd (PARD3B_2, Q8TEW8; [2]): below the threshold; pKd (PARD3B_3, Q8TEW8; [2]): below the threshold; pKd (IL16_2, Q14005; [2]): below the threshold; pKd (LIMK1, P53667; [2]): below the threshold; pKd (PTPN13_2, Q12923; [2]): below the threshold; pKd (MPDZ_6, O75970; [2]): below the threshold
